Paper PMC8787470, “Functional Irreplaceability of Escherichia coli and Shewanella oneidensis OxyRs Is Critically Determined by Intrinsic Differences in Oligomerization” (mBio, 2022)

B1: SoOxyR RD_(C203S) (regulatory domain of Shewanella oneidensis OxyR, residues 91 to 304, C203S) (domain or fragment, UniProt Q8EHA1 91-304, looked up)
chain: EPMTGDIRLGCIPTIAPFLLSRVVKQCQQAYPEMSLLLKEDTTERLLDALGKGELDLLILALPVDTSGYHSMKVGIDPFKMVIHKDLVGGIHQPIDYQTLPDESIFLLQSEHSITGHAITACQLGDSAKVNPFAATSLHTLVQMVNSKLGTTFLPQMAIDAGILNDTDLVVMTPPGEAPYRDIGLVWRQTTSRILTFRTLGLLIQKLLTNETAQ
notes: OxyR of Shewanella oneidensis, regulatory domain (RD), residues 91 to 304 of the full-length protein, locked in the reduced form by C203S; Six molecules in the crystallographic asymmetric unit; also called RD_(C203S) of SoOxyR; SoOxyR^C203S RD
B2: OxyR^Δ286− (SoOxyR truncation lacking all residues after 286) (domain or fragment, Shewanella oneidensis, UniProt Q8EHA1 1-286, looked up)
chain: MKNLPSLKNLYYLVNLHQEQNFNRAAKVCFVSQSTLSSGIQNLEEQLGHQLIERDHKSFMFTAIGEEVVQRSRKILTDVDDLVELVKNQGEPMTGDIRLGCIPTIAPFLLSRVVKQCQQAYPEMSLLLKEDTTERLLDALGKGELDLLILALPVDTSGYHSMKVGIDPFKMVIHKDLVGGIHQPIDYQTLPDESIFLLQSEHCITGHAITACQLGDSAKVNPFAATSLHTLVQMVNSKLGTTFLPQMAIDAGILNDTDLVVMTPPGEAPYRDIGLVWRQTTSRILT
notes: OxyR of Shewanella oneidensis, C-terminal truncation; the series is defined by SoOxyR^Δ283− (truncation lacking all residues after R283); also called SoOxyR^Δ286−; not shown: His6, N-terminal, kept
B3: OxyR^Δ290− (SoOxyR truncation lacking all residues after 290) (domain or fragment, Shewanella oneidensis, UniProt Q8EHA1 1-290, looked up)
chain: MKNLPSLKNLYYLVNLHQEQNFNRAAKVCFVSQSTLSSGIQNLEEQLGHQLIERDHKSFMFTAIGEEVVQRSRKILTDVDDLVELVKNQGEPMTGDIRLGCIPTIAPFLLSRVVKQCQQAYPEMSLLLKEDTTERLLDALGKGELDLLILALPVDTSGYHSMKVGIDPFKMVIHKDLVGGIHQPIDYQTLPDESIFLLQSEHCITGHAITACQLGDSAKVNPFAATSLHTLVQMVNSKLGTTFLPQMAIDAGILNDTDLVVMTPPGEAPYRDIGLVWRQTTSRILTFRTL
notes: OxyR of Shewanella oneidensis, C-terminal truncation; the series is defined by SoOxyR^Δ283− (truncation lacking all residues after R283); also called SoOxyR^Δ290−; not shown: His6, N-terminal, kept
B4: OxyR_(R288E+F287A) (SoOxyR double point mutant) (natural protein, Shewanella oneidensis, UniProt Q8EHA1 1-304, looked up)
chain: MKNLPSLKNLYYLVNLHQEQNFNRAAKVCFVSQSTLSSGIQNLEEQLGHQLIERDHKSFMFTAIGEEVVQRSRKILTDVDDLVELVKNQGEPMTGDIRLGCIPTIAPFLLSRVVKQCQQAYPEMSLLLKEDTTERLLDALGKGELDLLILALPVDTSGYHSMKVGIDPFKMVIHKDLVGGIHQPIDYQTLPDESIFLLQSEHCITGHAITACQLGDSAKVNPFAATSLHTLVQMVNSKLGTTFLPQMAIDAGILNDTDLVVMTPPGEAPYRDIGLVWRQTTSRILTAETLGLLIQKLLTNETAQ
notes: OxyR of Shewanella oneidensis, the whole protein with two point mutations in helix α10; also called SoOxyR_(R288E-F287A); not shown: His6, N-terminal, kept

Tests used:
[1] = target: the molecule itself; experiment: crystal structure; SoOxyR RD C203S crystallised at 20°C by hanging-drop vapor diffusion, 4.0 M ammonium acetate, 0.1 M Bis-Tris propane pH 7.0; six molecules in the asymmetric unit; interfaces listed with PDBePISA
[2] = target: the molecule itself; experiment: native gel or EMSA; oligomers read from shifted bands of protein on DNA: 10 nM digoxigenin-labelled 188 bp katB promoter probe, various amounts of His6-OxyR variant, 4 mM Tris-HCl pH 8.0, 40 mM NaCl, 4 mM MgCl2, 4% glycerol, poly(dI-dC), room temperature 15 min, 7% native polyacrylamide gel

Protein	stoichiometry N [2]	other results
B1	–	binding result [1]: binds
B2	–	binding result [2]: binds
B3	4	–
B4	4	–
